Assay results: PMC10611751

Biological target: Ankyrin-G ANK repeats 8-24
Assay: ITC; E-cadherin proteins in the syringe (e.g. 200 μM Trx-E-cadherin) titrated into AnkG in the cell (e.g. 20 μM Trx-AnkG R1-24); 25 °C; 50 mM Tris, 100 mM NaCl, 1 mM EDTA, 1 mM DTT, pH 7.8; one-site binding model

E-cadherin C-terminal domain (residues 734-884), sequence (P09803 734-884): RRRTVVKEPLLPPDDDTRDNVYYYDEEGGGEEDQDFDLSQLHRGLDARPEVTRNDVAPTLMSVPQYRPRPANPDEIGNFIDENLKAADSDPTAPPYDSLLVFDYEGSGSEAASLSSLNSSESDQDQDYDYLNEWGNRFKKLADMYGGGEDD
E-cadherin 828-869 (containing both site-2 and site-3), sequence (P09803 828-869): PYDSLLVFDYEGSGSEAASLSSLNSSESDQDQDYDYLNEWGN
E-cadherin 751-775 (site-1), sequence (P09803 751-775): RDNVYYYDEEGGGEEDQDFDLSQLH

| Kd [nM] | Substance |
| --- | --- |
| 1300 | E-cadherin 751-775 (site-1) (from UniProt P09803 751-775) (domain or fragment) |
| 2500 | E-cadherin 828-869 (containing both site-2 and site-3) (from UniProt P09803 828-869) (domain or fragment) |
| 1500 | E-cadherin C-terminal domain (residues 734-884) (from UniProt P09803 734-884) (domain or fragment) |
